Test results taken from US20140274782A1 (Stanford University, published 2014).

Molecular target: T1, CD79A-B-cell antigen receptor complex-associated protein alpha-chain (human, UniProt P11912 33-226, limits assumed)
T1 sequence (looked up): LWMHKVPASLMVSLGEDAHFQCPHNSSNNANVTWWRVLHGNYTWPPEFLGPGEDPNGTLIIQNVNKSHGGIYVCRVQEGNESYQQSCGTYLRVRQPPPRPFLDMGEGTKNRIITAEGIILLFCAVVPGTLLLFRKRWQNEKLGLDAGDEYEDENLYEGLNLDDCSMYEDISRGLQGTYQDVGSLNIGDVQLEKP
Test: ProtoArray, GST-treated control array;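 further: human protein microarray (about 9500 recombinant proteins) incubated overnight with GST alone plus SAM cofactor as the negative control for G9a SET domain methylation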

GST Average SNR: -0.746
B1: 3× Flag-3×MBT (designed binder)
chain: EEWSSSQPATGEKKECWSWESYLEEQKAITAPVSLFQDSQAVTHNKNGFKLGMKLEGIDPQHPSMYFILTVAEVCGYRLRLHFDGYSECHDFWVNANSPDIHPAGWFEKTGHKLQPPKGYKEEEFSWSQYLRSTRAQAAPKHLFVSQSHSPPPLGFQVGMKLEAVDRMNPSLVCVASVTDVVDSRFLVHFDNWDDTYDYWCDPSSPYIHPVGWCQKQGKPLTPPQDYPDPDNFCWEKYLEETGASAVPTWAFKVRPPHSFLVNMKLEAVDRRNPALIRVASVEDVEDHRIKIHFDGWSHGYDFWIDADHPDIHPAGWCSKTGHPLQPPLGPREPSSASPGG
notes: also called Flag-tagged 3×MBT; 3xFlag-3xMBT; not shown: made by PreScission cleavage of GST-3× Flag-3×MBT
